Data published in patent US20180333469.
“Also recorded” adds a separate entry of the source.

Target: tissue factor pathway inhibitor (TFPI), P10646
Sequence (P10646 whole entry, looked up): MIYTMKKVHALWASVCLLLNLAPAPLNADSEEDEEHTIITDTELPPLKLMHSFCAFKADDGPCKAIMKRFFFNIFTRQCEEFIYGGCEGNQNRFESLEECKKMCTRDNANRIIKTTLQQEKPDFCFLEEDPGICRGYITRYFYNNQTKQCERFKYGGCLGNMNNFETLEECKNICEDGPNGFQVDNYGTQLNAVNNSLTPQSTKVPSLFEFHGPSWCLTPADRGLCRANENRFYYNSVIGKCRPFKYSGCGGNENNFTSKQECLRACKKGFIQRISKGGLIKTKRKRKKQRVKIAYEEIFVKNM

| Protein | fXa formation from fX (170 nM) by fVIIa/TF, measured by Spectrozyme-Xa cleavage | fXa chromogenic activity (cleavage of Spectrozyme-fXa, 100 µM) after 2 hour incubation |
| --- | --- | --- |
| fVIIa/TF enzyme complex (protein) chain 1: ANAFLEELRPGSLERECKEEQCSFEEAREIFKDAERTKLFWISYSDGDQCASSPCQNGGSCKDQLQSYICFCLPAFEGRNCETHKDDQLICVNENGGCEQYCSDHTGTKRSCRCHEGYSLLADGVSCTPTVEYPCGKIPILEKRNASKPQGRIVGGKVCPKGECPWQVLLLVNGAQLCGGTLINTIWVVSAAHCFDKIKNWRNLIAVLGEHDLSEHDGDEQSRRVAQVIIPSTYVPGTTNHDIALLRLHQPVVLTDHVVPLCLPERTFSERTLAFVRFSLVSGWGQLLDRGATALELMVLNVPRLMTQDCLQQSRKVGDSPNITEYMFCAGYSDGSKDSCKGDSGGPHATHYRGTWYLTGIVSWGQGCATVGHFGVYTRVSQYIEWLQKLMRSEPRPGVLLRAPFP chain 2: SGTTNTVAAYNLTWKSTNFKTILEWEPKPVNQVYTVQISTKSGDWKSKCFYTTDTECDLTDEIVKDVKQTYLARVFSYPAGNVESTGSAGEPLYENSPEFTPYLETNLGQPTIQSFEQVGTKVNVTVEDERTLVRRNNTFLSLRDVFGKDLIYTLYYWKSSSSGKKTAKTNTNEFLIDVDKGENYCFSVQAVIPSRTVNRKSTDSPVECMGQEKGEFREIFYIIGAVVFVVIILVIILAISLHKCRKAGVGQSWKENSPLNVS | fXa combined with TFPI (included at the physiological concentration of 2.4 nM) and rapidly inhibited fVIIa/TF activity |  |
| wild-type factor Xa (fXa) (protein) chain 1: ANSFLEEMKKGHLERECMEETCSYEEAREVFEDSDKTNEFWNKYKDGDQCETSPCQNQGKCKDGLGEYTCTCLEGFEGKNCELFTRKLCSLDNGDCDQFCHEEQNSVVCSCARGYTLADNGKACIPTGPYPCGKQTLER chain 2: IVGGQECKDGECPWQALLINEENEGFCGGTILSEFYILTAAHCLYQAKRFKVRVGDRNTEQEEGGEAVHEVEVVIKHNRFTKETYDFDIAVLRLKTPITFRMNVAPACLPERDWAESTLMTQKTGIVSGFGRTHEKGRQSTRLKMLEVPYVDRNSCKLSSSFIITQNMFCAGYDTKQEDACQGDSGGPHVTRFKDTYFVTGIVSWGEGCARKGKYGIYTKVTAFLKWIDRSMKTRGLPKAKSHAPEVITSSPLK |  | For fXa at both 0.5 nM and 1 nM, a 2 nM concentration of TFPI was enough to almost completely inhibit the activity of fXa; also recorded: Such inhibition was also significant when TFPI's concentration was at 1 nM |
